Article PMC314469, “Protein Interaction Networks by Proteome Peptide Scanning” (PLoS Biology, 2004)

Target: T1, Abp1 SH3 (ABP1_YEAST), P15891
T1 chain: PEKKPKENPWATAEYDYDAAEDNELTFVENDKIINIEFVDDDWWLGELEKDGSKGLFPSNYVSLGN
Experiment: SPOT array

For AAELGNNALPPTKP [YNR046W 63-76], the normalised SPOT signal, Boehringer light units (BLU); mean over the file's lines of this peptide was 86.6.

Binder AKSTRSSPQKAKP [YBR203W 447-459] has a normalised SPOT signal, Boehringer light units (BLU); mean over the file's lines of this peptide of 88.6.

For AGDDEPGADEPARP [YOL073C 298-311], the normalised SPOT signal, Boehringer light units (BLU); mean over the file's lines of this peptide was 27.3.

YYVLNPNNKQPIKP [YNL076W 85-98] was tested, and the normalised SPOT signal, Boehringer light units (BLU); mean over the file's lines of this peptide was 82.3.

YQKTFKLPWDPRP [YBL086C 310-322] showed a normalised SPOT signal, Boehringer light units (BLU); mean over the file's lines of this peptide of 155.

For YYVSKRVPVKNRP [YNL023C 118-130], the normalised SPOT signal, Boehringer light units (BLU); mean over the file's lines of this peptide was 211.

AIIDRIPPPTGRP [YLR289W 219-231] was tested, and the normalised SPOT signal, Boehringer light units (BLU); mean over the file's lines of this peptide was 132.

With YVTFTTIPYKEKP [YCL058C 12-24] the normalised SPOT signal, Boehringer light units (BLU); mean over the file's lines of this peptide was 70.4.

Work on YYRLDALPKDGKP [YGL245W 693-705] yielded a normalised SPOT signal, Boehringer light units (BLU); mean over the file's lines of this peptide of 219.

For AGGGIWGPMEKKP [YHR093W 43-55], the normalised SPOT signal, Boehringer light units (BLU); mean over the file's lines of this peptide was 120.

AISIFDMNLSPIKP [YKL108W 91-104] gave a normalised SPOT signal, Boehringer light units (BLU); mean over the file's lines of this peptide of 40.2.

ADQRKLFPNWIKP [YHR165C 1003-1015] gave a normalised SPOT signal, Boehringer light units (BLU); mean over the file's lines of this peptide of 456.

With YKDSFYKEMTPSKP [YOR177C 24-37] the normalised SPOT signal, Boehringer light units (BLU); mean over the file's lines of this peptide was 164.

With ALNDSMFFPYPFKP [YGL131C 433-446] the normalised SPOT signal, Boehringer light units (BLU); mean over the file's lines of this peptide was 138.

Binder YKWTIPQPIGRRP [YGR238C 182-194] has a normalised SPOT signal, Boehringer light units (BLU); mean over the file's lines of this peptide of 3200.

With YSRQAIPPPVPNRP [YLR144C 3-16] the normalised SPOT signal, Boehringer light units (BLU); mean over the file's lines of this peptide was 1840.

In the case of YTNMNSLVATPMKP [YHR015W 541-554], the normalised SPOT signal, Boehringer light units (BLU); mean over the file's lines of this peptide is reported as 145.

Work on YYSASPLPASKRP [YMR108W 43-55] yielded a normalised SPOT signal, Boehringer light units (BLU); mean over the file's lines of this peptide of 144.

Binder YLNESFVMQQPIKP [YGR067C 417-430] has a normalised SPOT signal, Boehringer light units (BLU); mean over the file's lines of this peptide of 179.

YKVYFSTPRDVKP [YBR024W 225-237] gave a normalised SPOT signal, Boehringer light units (BLU); mean over the file's lines of this peptide of 114.

AAADSVSPDSQRP [YLL027W 53-65] showed a normalised SPOT signal, Boehringer light units (BLU); mean over the file's lines of this peptide of 182.

For AAAPDVKPHDTKP [YPR125W 432-444], the normalised SPOT signal, Boehringer light units (BLU); mean over the file's lines of this peptide was 45.6.

ALPLPAVFSAPIRP [YBR031W 19-32] gave a normalised SPOT signal, Boehringer light units (BLU); mean over the file's lines of this peptide of 49.7.

AAPNSNVPTNERP [YGL122C 485-497] was tested, and the normalised SPOT signal, Boehringer light units (BLU); mean over the file's lines of this peptide was 146.

Binder AGPKPSISLVPDKP [YLR189C 14-27] has a normalised SPOT signal, Boehringer light units (BLU); mean over the file's lines of this peptide of 233.

Binder ALDGSSKPFKVKP [YLR392C 95-107] has a normalised SPOT signal, Boehringer light units (BLU); mean over the file's lines of this peptide of 223.

In the case of ADDSFIFPDEDKP [YNL103W 152-164], the normalised SPOT signal, Boehringer light units (BLU); mean over the file's lines of this peptide is reported as 61.8.

With YYRELLSFLSPGKP [YML005W 156-169] the normalised SPOT signal, Boehringer light units (BLU); mean over the file's lines of this peptide was 59.8.

Work on YNPYGISPNHARP [YJR059W 184-196] yielded a normalised SPOT signal, Boehringer light units (BLU); mean over the file's lines of this peptide of 223.

With YRLLRLLPHASRP [YOR267C 685-697] the normalised SPOT signal, Boehringer light units (BLU); mean over the file's lines of this peptide was 64.

Binder ALPTGAPPTTPSRP [YGR170W 87-100] has a normalised SPOT signal, Boehringer light units (BLU); mean over the file's lines of this peptide of 92.1.

With YTDNDDYPELDRP [YOR292C 157-169] the normalised SPOT signal, Boehringer light units (BLU); mean over the file's lines of this peptide was 140.

For YTPTSSQPRPPPRP [YGR268C 67-80], the normalised SPOT signal, Boehringer light units (BLU); mean over the file's lines of this peptide was 532.

AAYNAKKAAKPAKP [YAL003W 104-117] showed a normalised SPOT signal, Boehringer light units (BLU); mean over the file's lines of this peptide of 109.

With AIIYHHKAGDPFKP [YGR276C 328-341] the normalised SPOT signal, Boehringer light units (BLU); mean over the file's lines of this peptide was 155.

For ALKQKKIPPPFKP [YHR205W 678-690], the normalised SPOT signal, Boehringer light units (BLU); mean over the file's lines of this peptide was 5260.

For YNESAPLQPFPERP [YFL041W 454-467], the normalised SPOT signal, Boehringer light units (BLU); mean over the file's lines of this peptide was 15.5.

With YKWTVPAPVGPRP [YHR158C 222-234] the normalised SPOT signal, Boehringer light units (BLU); mean over the file's lines of this peptide was 1300.

Binder ALKDFHSTLDPSKP [YOR251C 241-254] has a normalised SPOT signal, Boehringer light units (BLU); mean over the file's lines of this peptide of 91.9.

With AKKEFDEKLPPKKP [YMR072W 106-119] the normalised SPOT signal, Boehringer light units (BLU); mean over the file's lines of this peptide was 87.3.

Work on AKDPIRTPDAKKP [YLR226W 381-393] yielded a normalised SPOT signal, Boehringer light units (BLU); mean over the file's lines of this peptide of 328.

ALFGFRDPNGIRP [YMR300C 181-193] was tested, and the normalised SPOT signal, Boehringer light units (BLU); mean over the file's lines of this peptide was 102.

YYNDLSYYLRPIKP [Q0115 375-388] was tested, and the normalised SPOT signal, Boehringer light units (BLU); mean over the file's lines of this peptide was 128.

Binder YKPWSAWSYLPPKP [YDL035C 229-242] has a normalised SPOT signal, Boehringer light units (BLU); mean over the file's lines of this peptide of 208.

Work on YRVYFSTPPNVKP [YBR037C 219-231] yielded a normalised SPOT signal, Boehringer light units (BLU); mean over the file's lines of this peptide of 138.

YPQMLALPIARRP [YBL022C 179-191] gave a normalised SPOT signal, Boehringer light units (BLU); mean over the file's lines of this peptide of 8030.

In the case of AEGNVKPWNPPQKP [YLR295C 56-69], the normalised SPOT signal, Boehringer light units (BLU); mean over the file's lines of this peptide is reported as 160.

Binder AIRKENLPNLEKP [YDR150W 1608-1620] has a normalised SPOT signal, Boehringer light units (BLU); mean over the file's lines of this peptide of 72.3.

With AAVPTKTIASPQRP [YOR227W 52-65] the normalised SPOT signal, Boehringer light units (BLU); mean over the file's lines of this peptide was 243.

In the case of AHLSAADPDFYKP [YOR153W 112-124], the normalised SPOT signal, Boehringer light units (BLU); mean over the file's lines of this peptide is reported as 94.4.

AMIAHLSPHNARP [YJR124C 130-142] showed a normalised SPOT signal, Boehringer light units (BLU); mean over the file's lines of this peptide of 464.

Binder AAAAPPLPSDVRP [YDR159W 245-257] has a normalised SPOT signal, Boehringer light units (BLU); mean over the file's lines of this peptide of 60.6.

Work on AIKSIYSPSDKRP [YBR229C 581-593] yielded a normalised SPOT signal, Boehringer light units (BLU); mean over the file's lines of this peptide of 351.

Binder AIAYDNAPYSPKP [YGL008C 735-747] has a normalised SPOT signal, Boehringer light units (BLU); mean over the file's lines of this peptide of 173.

Binder AIDPPRRPHNVKP [YCL048W 27-39] has a normalised SPOT signal, Boehringer light units (BLU); mean over the file's lines of this peptide of 2120.

YNYSFQFDKFPRKP [YLR392C 110-123] showed a normalised SPOT signal, Boehringer light units (BLU); mean over the file's lines of this peptide of 275.

ASVEQFDLKMPSKP [YLR055C 485-498] was tested, and the normalised SPOT signal, Boehringer light units (BLU); mean over the file's lines of this peptide was 112.

Work on ALWEVGSGGDPTKP [YEL056W 186-199] yielded a normalised SPOT signal, Boehringer light units (BLU); mean over the file's lines of this peptide of 80.3.
